Each block holds one molecule with its values, some of them ahead of it.
Experiments:
[1] = biological target: low density lipoprotein receptor-related protein (LRP) on rat MH1C1 hepatoma cells (rat); experiment: saturation binding to MH1C1 cells, Scatchard; summary of 7 experiments
[2] = biological target: low density lipoprotein receptor-related protein (LRP) on rat MH1C1 hepatoma cells (rat); experiment: saturation binding to MH1C1 cells pre-incubated with 0.1% saponin, Scatchard; n=3 (ligand label as printed, doubtful)
[3] = biological target: low density lipoprotein receptor-related protein (LRP) on rat MH1C1 hepatoma cells (rat); experiment: competition of 125I-t-PA binding to MH1C1 cells
[4] = biological target: low density lipoprotein receptor-related protein (LRP) on rat MH1C1 hepatoma cells (rat); experiment: saturation binding to MH1C1 cells, Scatchard; simultaneous assays, n=4
[5] = biological target: low density lipoprotein receptor-related protein (LRP) on rat MH1C1 hepatoma cells (rat); experiment: competition of 125I-t-PA binding to MH1C1 cells by recombinant rat 39 kDa protein
[6] = biological target: low density lipoprotein receptor-related protein (LRP) on rat MH1C1 hepatoma cells (rat); experiment: competition of 4 nM 125I-t-PA binding to MH1C1 cells, protein eluted from PVDF
[7] = biological target: low density lipoprotein receptor-related protein (LRP) on rat MH1C1 hepatoma cells (rat)
[8] = biological target: low density lipoprotein receptor-related protein (LRP) on rat MH1C1 hepatoma cells (rat); experiment: saturation binding of 125I-ligand to MH1C1 cells at 4 C, Scatchard analysis (one experiment, FIG. 1A)
[9] = biological target: low density lipoprotein receptor-related protein (LRP) on human hepatoma HepG2 cells (human) (UniProt Q07954)
[10] = biological target: T1, low density lipoprotein receptor-related protein (LRP) on human hepatoma HepG2 cells (human, UniProt Q07954); experiment: saturation binding to HepG2 cells at 4 C, Scatchard; one experiment
Experimental: (§1) Cells were seeded into multiwell (12 wells/plate) disposable plastic tissue culture plates 2 days prior to assay. Ligand binding buffer for t-PA was composed of phosphate-buffered saline (PBS) supplemented with 0.2 mM CaCl_2 and 10 mM EACA, whereas PBSc (PBS containing 1 mM CaCl_2 and 0.5 mM MgCl_2) was used for 39 kDa protein binding. Binding experiments were performed at 4° C. to prevent possible concomitant internalization during the binding interval. Cell monolayers were washed three times on ice with prechilled binding buffer. Binding was initiated by adding 0.5 ml binding buffer containing selected concentrations of ^125I-labelled ligand in the absence or presence of an excess unlabelled ligand (1 μM). After incubation at 4° C. for 1.5 hours, buffer containing unbound ligand was removed. Cells were then washed three times with binding buffer and lysed in 0.0625M Tris-HCl, pH 6.8, containing 0.2% (w/v) SDS and 10% (v/v) glycerol ("low-SDS lysis buffer"). Radioactivity of cell lysates was quantified by γ scintillation spectrometry. For some experiments, cell lysates were further analyzed by SDS-PAGE and autoradiography as described below. Total binding was determined in the presence of ^125I-labelled ligand alone. Nonspecific binding was determined in the presence of excess unlabelled ligand. Specific ligand binding was defined as the difference between total and nonspecific binding. […]

[11] = biological target: low density lipoprotein receptor-related protein (LRP) on rat MH1C1 hepatoma cells (rat); experiment: saturation binding to MH1C1 cells, Scatchard; summary of 10 experiments
[12] = biological target: T1, low density lipoprotein …; experiment: saturation binding to HepG2 cells at 4 C, Scatchard; five experiments
Experimental: as §1

[13] = biological target: low density lipoprotein receptor-related protein (LRP) on rat MH1C1 hepatoma cells (rat); experiment: competition of 3 nM 125I-t-PA binding to MH1C1 cells at 4 C
[14] = biological target: low density lipoprotein receptor-related protein (LRP) on human hepatoma HepG2 cells (human) (UniProt Q07954); remark: listed apart in the source
[15] = biological target: low density lipoprotein receptor-related protein (LRP) on rat MH1C1 hepatoma cells (rat); experiment: saturation binding to untreated MH1C1 cells, Scatchard; n=3
[16] = biological target: low density lipoprotein receptor-related protein (LRP) on rat MH1C1 hepatoma cells (rat); experiment: competition of 4 nM 125I-t-PA binding to MH1C1 cells; buffer alone exhibited 20-30% inhibition
[17] = biological target: low density lipoprotein receptor-related protein (LRP) on rat MH1C1 hepatoma cells (rat); experiment: competition of 4 nM 125I-t-PA binding to MH1C1 cells, fragment eluted from PVDF

B2: 20 kDa N-terminal fragment of the 39 kDa protein (ligand)
chain: YSREKNQPKPSPKRESGEEFRMEKLNQLWEKAQRLHLPPVRLAELHADLKIQERDELAWKKLKLDGLDEDGEKEARLIRNLNVILAKYGLDGKKDARQVTSNSLSGTQEDGLDD
percent inhibition at 16 nM [16]: 10%

B3: 28 kDa C-terminal fragment of the 39 kDa protein (ligand)
chain: PRLEKLWHKAKTSGKFSGEELDKLWREFLHHKEKVHEYNVLLETLSRTEEIHENVISPSDLSDIKGSVLHSRHTELKEKLRSINQGLDRLRRVSHQGYSTEAEFEEPRVIDLWDLAQSANLTDKELEAFREELKHFEAKIEKHNHYQKQLEIAHEKLRHAESVGDGERVSRSREKHALLEGRTKELGYTVKKHLQDLSGRISRARHNEL
IC50 [17]: 4 nM
concentration at 90% inhibition [17]: 16 nM

Next, values leading:

Kd [1]: 4.9 nM
Kd [2]: 9.1 nM
Ki [3]: 8 nM
Kd [4]: 5.6 nM
Molecule: tissue-type plasminogen activator (t-PA) (from UniProt P00750) (enzyme)

Ki [5]: 0.5 nM
Molecule: rat 39 kDa protein (from UniProt Q99068) (ligand)

IC50 [6]: 1 nM
concentration at 90% inhibition [6]: 8 to 10 nM
rate of ligand uptake and degradation at 37° C. (fmol/10^6 cells/minute) [7]: 52
Kd [8]: 3.2 nM
specific ^125 I-t-PA uptake by HepG2 cells (cell-associated radioactivity) [9]: 70%
Kd [10]: 4.9 nM
Kd [11]: 3.3 nM
Kd [12]: 5.1 nM
IC50 [13]: < 1 nM
Kd [4]: 3.5 nM
specific degradation of ^125 I-t-PA by HepG2 cells (TCA-soluble radioactivity) [14]: 75%
Kd [15]: 2.7 nM
B1: 39 kDa protein (ligand)
chain: YSREKNQPKPSPKRESGEEFRMEKLNQLWEKAQRLHLPPVRLAELHADLKIQERDELAWKKLKLDGLDEDGEKEARLIRNLNVILAKYGLDGKKDARQVTSNSLSGTQEDGLDDPRLEKLWHKAKTSGKFSGEELDKLWREFLHHKEKVHEYNVLLETLSRTEEIHENVISPSDLSDIKGSVLHSRHTELKEKLRSINQGLDRLRRVSHQGYSTEAEFEEPRVIDLWDLAQSANLTDKELEAFREELKHFEAKIEKHNHYQKQLEIAHEKLRHAESVGDGERVSRSREKHALLEGRTKELGYTVKKHLQDLSGRISRARHNEL

— US5474766, “Methods and compositions for inhibition of hepatic clearance of tissue-type plasminogen activator” (Washington University, dated 1995)
